Key:
[1] = molecular target: HLMWb5 L51I mutant (human) (UniProt P00167)
[2] = molecular target: HLMWb5 G67S mutant (human) (UniProt P00167)
[3] = molecular target: HLMWb5 A59S mutant (human) (UniProt P00167)
[4] = molecular target: full-length form of human cytochrome b5 (human) (UniProt P00167)
[5] = molecular target: HLMWb5 G67A mutant (human) (UniProt P00167)
[6] = molecular target: HLMWb5 A59V mutant (human) (UniProt P00167)
[7] = molecular target: HLMWb5 L51I mutant (human) (UniProt P00167); remark: listed apart in the source
[8] = molecular target: HLMWb5 G67S mutant (human) (UniProt P00167); remark: listed apart in the source
[9] = molecular target: HLMWb5 A59S mutant (human) (UniProt P00167); remark: listed apart in the source
[10] = molecular target: full-length form of human cytochrome b5 (human) (UniProt P00167); remark: listed apart in the source
[11] = molecular target: heme-binding soluble domain of human liver microsomal cytochrome b5 with an NH2-terminal 6xHis-tag extension (HLMWb5) (human) (UniProt P00167)
[12] = molecular target: HLMWb5 G67A mutant (human) (UniProt P00167); remark: listed apart in the source
[13] = molecular target: HLMWb5 A59V mutant (human) (UniProt P00167); remark: listed apart in the source

half-wave potential E1/2 (vs. SHE) by cyclic voltammetry, poly-L-lysine 50~300 μM; no dependency on the poly-L-lysine concentration observed (value at 200 μM) [1]: -30.5 mV
half-wave potential E1/2 (vs. SHE) by cyclic voltammetry, poly-L-lysine 50~300 μM; similar concentration dependency as the wild type (value at 200 μM) [2]: -32 mV
half-wave potential E1/2 (vs. SHE) by cyclic voltammetry, poly-L-lysine 50~300 μM; shifts positively and reaches a plateau at 200 μM (value at 200 μM) [3]: -31.5 mV
half-wave potential E1/2 (vs. SHE) by cyclic voltammetry, Au electrode with β-mercaptopropionic acid, 200 μM poly-L-lysine, with Triton X-100 [4]: -20.5 mV
half-wave potential E1/2 (vs. SHE) by cyclic voltammetry, poly-L-lysine 50~300 μM; similar concentration dependency as the wild type, with a significant negative shift (value at 200 μM) [5]: -40.5 mV
half-wave potential E1/2 (vs. SHE) by cyclic voltammetry, poly-L-lysine 50~300 μM; no dependency on the poly-L-lysine concentration observed (value at 200 μM) [6]: -29 mV
midpoint potential (vs. SHE) by spectroscopic redox titration with 200 μM poly-L-lysine (-9.5 mV without poly-L-lysine) [7]: 10.5 mV
midpoint potential (vs. SHE) by spectroscopic redox titration with 200 μM poly-L-lysine (-7.3 mV without poly-L-lysine) [8]: 14.2 mV
midpoint potential (vs. SHE) by spectroscopic redox titration with 200 μM poly-L-lysine (-4.9 mV without poly-L-lysine) [9]: 9.6 mV
midpoint potential (vs. SHE) by spectroscopic redox titration with 200 μM poly-L-lysine, 0.5% Triton X-100 (-2.6 mV without poly-L-lysine) [10]: 8.7 mV
midpoint potential (vs. SHE) by spectroscopic redox titration, 15 μM protein with 200 μM poly-L-lysine, pH 7.0, 25°C (-3.2 mV without poly-L-lysine) [11]: 16.5 mV
midpoint potential (vs. SHE) by spectroscopic redox titration with 200 μM poly-L-lysine (-8.4 mV without poly-L-lysine) [12]: -2.7 mV
midpoint potential (vs. SHE) by spectroscopic redox titration with 200 μM poly-L-lysine (-7.7 mV without poly-L-lysine) [13]: 11.7 mV
Substance: poly-L-lysine (peptide)

Source: article PMC3014896
